Results as given in patent US20110144024A1.

Key:
thrombin [1] = test: cell-based or functional assay
thrombin [2] = test: SPR (Biacore 3000), 50 nM TM irradiated with 20 Gy over immobilized thrombin; reference is sham-irradiated (0 Gy) TM; 3 experiments
thrombin [3] = test: SPR (Biacore 3000), 50 nM TM irradiated with 80 Gy over immobilized thrombin; reference is sham-irradiated (0 Gy) TM; 3 experiments
thrombin [4] = test: SPR (Biacore 3000), 50 nM TM irradiated with 1.77 Gy over immobilized thrombin; reference is sham-irradiated (0 Gy) TM; 3 experiments

## recombinant full length human thrombomodulin (from UniProt P07204 19-515) (receptor)
Thrombin [1]
  mean reduction in protein C activation, TM exposed to 1.77 Gy without MPO: 12%
  reduction in protein C activation, TM exposed to 1.77 Gy in the presence of MPO: 40%
Thrombin [2]
  decrease of average RU value relative to baseline (0 Gy): 18.9%
Thrombin [3]
  decrease of average RU value relative to baseline (0 Gy): 21.6%
Thrombin [4]
  decrease of average RU value relative to baseline (0 Gy): 13.2%
